Reference: article PMC10403523
One block for each substance: values may come before it.

Assays:
[1] = system: yeast SWI/SNF complex (WT) (Saccharomyces cerevisiae); assay: EMSA; conditions: apparent KD, Kd EMSA: 6.7 nM DNA or nucleosome, 1.3-23 nM SWI/SNF, 4% native PAGE (79:1), Methods: prebinding 30 C, 15 min, gel in 0.5x TBE, binding buffer, salt and pH not …
[2] = system: yeast SWI/SNF complex (WT) (Saccharomyces cerevisiae); assay: competition; conditions: EMSA competition against 601 DNA; Kd EMSA: 6.7 nM DNA or nucleosome, 1.3-23 nM SWI/SNF, 4% native PAGE (79:1); Methods: prebinding 30 C, 15 min, gel in 0.5x …; binding buffer, salt and pH not
[3] = target: 29N59 mononucleosome: recombinant Xenopus laevis histone octamer on 601 DNA with 29 and 59 bp of flanking DNA (Xenopus laevis); assay: native gel or EMSA; apparent KD; 6.7 nM 29N59 nucleosomes, WT or ΔAT SWI/SNF varied from 1.3 to 23 nM; 4% native polyacrylamide gel (79:1)

Substance: 29N59 nucleosome
Kd ([1]; 6.7 nM nucleosome, recombinant Xenopus laevis histone octamer): 7.67 nM

Substance: 235 bp 601 DNA
Kd ([1]; 6.7 nM DNA): 7.87 nM

Substance: pUC19 plasmid
Ki [2]: 12 nM

Kd [3]: 20.5 nM
Substance: yeast SWI/SNF complex with both AT-hooks of Snf2 deleted (from UniProt P22082 1-1703; P18480 1-905; Q12406 1-477; P09547 1-1314; P18888 1-332)

Kd [3]: 7.67 nM
Substance: yeast SWI/SNF complex, wild type (from UniProt P22082 1-1703; P18480 1-905; Q12406 1-477; P09547 1-1314; P18888 1-332)
